Legend:
[1] = target: T1, gD-iAPOL1-GPI (construct b, aa 61-398) (human, UniProt O14791 61-398, C-terminal GPI anchor); test: flow cytometry, live CHO cells, 5 µg/ml; conformational = only bound to full length APOL1
T1 construct: Stably expressed on CHO cells under a doxycycline-inducible promoter; also called gD-APOL1-GPI; gD-APOL1-G0-GPI
T1 sequence: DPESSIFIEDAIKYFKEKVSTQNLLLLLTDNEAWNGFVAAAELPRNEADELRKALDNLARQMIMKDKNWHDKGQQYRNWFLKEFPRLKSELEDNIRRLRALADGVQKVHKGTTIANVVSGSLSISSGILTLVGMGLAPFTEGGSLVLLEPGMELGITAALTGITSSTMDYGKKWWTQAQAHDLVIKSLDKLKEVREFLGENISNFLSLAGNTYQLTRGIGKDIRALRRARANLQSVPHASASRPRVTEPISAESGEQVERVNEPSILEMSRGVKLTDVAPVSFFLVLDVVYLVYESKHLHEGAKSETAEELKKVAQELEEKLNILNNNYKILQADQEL
Protocol: (§1) Stably transfected live (not fixed or permeabilized) CHO cells expressing the gD-iAPOL1-GPI constructs indicated in FIGS. 1A-1E after induction with 5 μg/ml dox for 48 h, showing differential antibody binding at 5 μg/ml. […] White histograms are Alexa488 anti-mouse or anti-rabbit secondaries only; grey histograms are the anti-APOL1 signals. A representative histogram for each category is shown: 3.7D6 for PFD; 3.3A8 for C-terminus of MAD, 3.5H9 for N-terminus of MAD; 3.1C1 for SRA-ID; 3.2D4 for multi-domain; 3.3F7 for conformational and 3.5B10 for FACS-negative (FACS-ve). The prefix 3 in the name of the antibodies denotes murine monoclonals from Method #3 (as shown in Example 1 below); other antibodies (not illustrated here) starting with the number 4 are murine monoclonals derived from mice additionally boosted with SRA-ID protein; and prefix 5-named antibodies are rabbit monoclonals from Method #5 (Table 2A; and Example 2). […] The Sigma polyclonal (HPA018885, raised to aa 263-387) and the Epitomics rabbit monoclonal (EPR2907(2), raised to an undisclosed peptide) are SRA-ID binders. […]
(§2) Cells were harvested with 5 mM EDTA in PBS, washed once with growth media and twice with PBS. […] Signals were read in a FACSCalibur3 (Becton Dickinson), with the exception of FIG. 8A and FIG. 14, which used a FACSCelesta, and data was analyzed using FlowJo v8.4.5.

[2] = target: T2, gD-PFD-MAD-GPI (construct c) (human, UniProt O14791 61-305, C-terminal GPI anchor); test: flow cytometry, live CHO cells; conformational = only bound to full length APOL1, but not individual domains
T2 sequence: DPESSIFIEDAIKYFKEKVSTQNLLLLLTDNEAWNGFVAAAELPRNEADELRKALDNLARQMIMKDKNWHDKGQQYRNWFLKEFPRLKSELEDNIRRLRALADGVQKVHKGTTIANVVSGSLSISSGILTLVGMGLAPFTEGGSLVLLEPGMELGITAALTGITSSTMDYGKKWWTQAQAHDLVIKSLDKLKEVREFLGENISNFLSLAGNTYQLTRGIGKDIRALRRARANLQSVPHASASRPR
Protocol: (§3) Stably transfected live (not fixed or permeabilized) CHO cells expressing the gD-iAPOL1-GPI constructs indicated in FIGS. 1A-1E after induction with 5 μg/ml dox for 48 h, showing differential antibody binding at 5 μg/ml. […] White histograms are Alexa488 anti-mouse or anti-rabbit secondaries only; grey histograms are the anti-APOL1 signals. A representative histogram for each category is shown: 3.7D6 for PFD; 3.3A8 for C-terminus of MAD, 3.5H9 for N-terminus of MAD; 3.1C1 for SRA-ID; 3.2D4 for multi-domain; 3.3F7 for conformational and 3.5B10 for FACS-negative (FACS-ve). The prefix 3 in the name of the antibodies denotes murine monoclonals from Method #3 (as shown in Example 1 below); other antibodies (not illustrated here) starting with the number 4 are murine monoclonals derived from mice additionally boosted with SRA-ID protein; and prefix 5-named antibodies are rabbit monoclonals from Method #5 (Table 2A; and Example 2). […] The Sigma polyclonal (HPA018885, raised to aa 263-387) and the Epitomics rabbit monoclonal (EPR2907(2), raised to an undisclosed peptide) are SRA-ID binders. Successful APOL1 surface expression of each construct was confirmed with the anti-gD epitope tag (gD-tag) antibody (to Herpes Simplex Virus glycoprotein D).
(§4) Cells were harvested with 5 mM EDTA in PBS, washed once with growth media and twice with PBS. Approximately 0.5×10⁶/m1 of cells resuspended in PBS were incubated with anti-APOL1 antibodies for 1 h on ice. Following two PBS washes, 2 μg/ml of Alexa488 anti-mouse or anti-rabbit (Invitrogen A11029 and A21206, respectively) was used for 1 h on ice for detection. Cells were washed twice in PBS and resuspended in PBS with 1 μg/ml propidium iodide. Signals were read in a FACSCalibur3 (Becton Dickinson), with the exception of FIG. 8A and FIG. 14, which used a FACSCelesta, and data was analyzed using FlowJo v8.4.5.

[3] = target: T3, gD-MAD-SRA-ID-GPI (construct d) (human, UniProt O14791 238-398, C-terminal GPI anchor); test: as above
T3 sequence: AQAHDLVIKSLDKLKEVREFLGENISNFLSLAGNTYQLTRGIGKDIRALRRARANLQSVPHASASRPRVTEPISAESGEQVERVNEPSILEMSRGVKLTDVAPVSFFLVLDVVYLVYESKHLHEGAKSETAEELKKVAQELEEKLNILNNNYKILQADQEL
Protocol: as §3, §4

[4] = target: T4, gD-SRA-ID-GPI (construct e) (human, UniProt O14791 305-398, C-terminal GPI anchor); test: as above
T4 sequence: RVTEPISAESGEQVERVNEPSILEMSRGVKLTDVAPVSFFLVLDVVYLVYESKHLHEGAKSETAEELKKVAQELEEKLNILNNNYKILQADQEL
Protocol: as §3, §4

[5] = target: T5, circulating APOL1 in normal human serum (human, UniProt O14791 28-398); test: immunoprecipitation from normal human serum with Dynabead-conjugated antibody
T5 construct: mature; Serum of healthy volunteers; lipoprotein-associated; also called serum APOL1; HDL APOL1
T5 sequence (looked up): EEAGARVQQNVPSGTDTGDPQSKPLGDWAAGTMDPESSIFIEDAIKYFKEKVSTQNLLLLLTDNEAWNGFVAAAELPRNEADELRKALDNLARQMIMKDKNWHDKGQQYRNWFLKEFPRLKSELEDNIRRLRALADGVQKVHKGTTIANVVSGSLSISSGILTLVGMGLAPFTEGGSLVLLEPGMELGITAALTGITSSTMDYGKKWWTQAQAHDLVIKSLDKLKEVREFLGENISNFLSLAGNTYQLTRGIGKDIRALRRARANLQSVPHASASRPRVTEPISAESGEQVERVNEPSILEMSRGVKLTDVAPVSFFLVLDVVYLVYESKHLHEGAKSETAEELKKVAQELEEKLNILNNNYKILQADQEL
Protocol: FIGS. 17A-17C show immunoprecipitation of APOL1 from NHS with a different set of APOL1 antibodies. FIG. 17A show as in FIG. 5D that all the blocking antibodies could immunoprecipitate APOL1, except the conformational antibody 3.7F5 (SEQ ID NOS: 203-212), which is also a poor blocker.
Anti-APOL1 antibodies were conjugated to Dynabeads (ThermoFisher 14311D) as per the manufacturer's protocol. Briefly, 10 μg of each antibody was conjugated to 2 mg of Dynabeads overnight at 37° C. with rotation. Next day, unbound antibody was washed off and conjugated antibody was resuspended at a final concentration of 50 μg/ml. 2-5 μg of the conjugated antibody was incubated with 1 μl of undiluted human serum at 4° C. for 16 h in a total volume of 500 μl with PBS. Unbound serum was washed with 150 mM NaCl in PBS. Bound APOL1 was eluted with low pH glycine buffer (this was preferable to direct boiling to avoid elution of non-specifically bound proteins). Eluates were boiled in 5× sample buffer (Invitrogen 39000) and loaded on 4-12% Bis-Tris gels (Invitrogen NP03220). Immunoprecipitated APOL1 was detected by rabbit polyclonal APOL1 antibody (Proteintech 11486-2-AP, 1:1000) and ECL. APOA1 was detected with goat anti-APOA1 (Rockland 600-101-109), HPR was detected with 1 μg/ml rabbit anti-HPR (Millipore ABS 196) and ECL Prime. […]

[6] = target: T5, circulating APOL1 in normal human serum; test: cell-based or functional assay
APOL6-myc-FLAG = target: T6, APOL6-myc-FLAG (human, UniProt Q9BWW8 1-343); test: immunofluorescence on transfected COS cells; grade
T6 construct: whole, on cells; In fixed, permeabilized transfected COS cells; untagged APOL6 in the western blots; not shown: C-terminal myc-FLAG tag
T6 sequence (looked up): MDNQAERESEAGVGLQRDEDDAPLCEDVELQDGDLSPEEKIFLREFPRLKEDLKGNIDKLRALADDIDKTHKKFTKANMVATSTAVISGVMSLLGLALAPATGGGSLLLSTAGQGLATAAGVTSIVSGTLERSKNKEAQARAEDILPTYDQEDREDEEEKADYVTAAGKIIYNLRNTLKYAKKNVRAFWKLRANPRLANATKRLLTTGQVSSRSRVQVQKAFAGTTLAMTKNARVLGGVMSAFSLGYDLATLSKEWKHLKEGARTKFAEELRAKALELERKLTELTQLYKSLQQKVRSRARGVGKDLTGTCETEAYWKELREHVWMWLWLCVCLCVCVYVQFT
Excerpt: COS cells were transfected as in FIG. 31A except APOL1 and APOL2 were also C-terminally myc-FLAG tagged. Overlays of APOL with epitope tags: either mouse anti-FLAG-M2 or mouse anti-myc 9E10 for anti-APOL1 rabmabs; or rabbit anti-Myc 71D10 in conjunction with mouse anti-APOL1. Signals indicate the two antibodies overlap (i.e. anti-APOL1 cross-reacts with that APOL); signals (epitope tag only) indicate no cross-reactivity. Alexa647 anti-rabbit or mouse were used for the tags to rule out the possibility that any colocalization was a bleed-through artifact. Sparsely transfected areas were imaged to permit evaluation of background staining in adjacent untransfected cells—DAPI nuclear staining identifies both untransfected and transfected cell nuclei. […] Note that none of the antibodies cross-reacted with the more distantly related APOL6. *, APOL2-myc-FLAG is presumably misfolded, since it is not as cross-reactive as untagged APOL2 (compare FIG. 31A) with several antibodies. Commercial antibodies are Sigma HPA018885, Epitomics EPR2907 (2) (Epito) and Proteintech 11486-2-AP (Ptech).
Cells were plated on LabTekII (Nalge Nunc 154534) slides and fixed at 70-100% confluency. For mAb screening, cells were fixed/permeabilized for 5 min in −20° C. methanol (EMD MX0485-6). For all other experiments, cells were fixed in 3% paraformaldehyde in PBS (EMS 15710) for 20 mins at room temperature, quenched with 50 mM NH₄Cl in PBS for 10 mins, then permeabilized with 0.1% TX-100 in PBS for 4 mins or for 1h in saponin buffer [0.4% saponin (Sigma S7900), 1% bovine serum albumin (BSA; Sigma A2153), 2% fetal bovine serum (Seradigm) in PBS]. First antibodies (stored sterile at 4° C.) were applied for 1 h at room temperature, at 1 μg/ml for screening on transfected cells or at subsequently optimized concentrations for detecting endogenous APOL1. After 3×10 min washes in PBS (for Methanol or TX-100 protocols) or saponin buffer (saponin protocol), secondary antibodies were applied at 1.88 μg/ml for 1 h at room temperature, washed 3× and mounted under No. 1.5 coverslips in ProLong Gold with DAPI (4′,6-diamidino-2-phenylindole; Life Technologies P36931).

[7] = target: T7, untagged APOL1-G0, KIK variant, transiently expressed (COS cells) (human, UniProt O14791 29-398); test: immunofluorescence on transfected COS cells, 1 µg/ml; grade
T7 construct: Origene SC109941 clone with E150K, M228I, R255K
T7 chain: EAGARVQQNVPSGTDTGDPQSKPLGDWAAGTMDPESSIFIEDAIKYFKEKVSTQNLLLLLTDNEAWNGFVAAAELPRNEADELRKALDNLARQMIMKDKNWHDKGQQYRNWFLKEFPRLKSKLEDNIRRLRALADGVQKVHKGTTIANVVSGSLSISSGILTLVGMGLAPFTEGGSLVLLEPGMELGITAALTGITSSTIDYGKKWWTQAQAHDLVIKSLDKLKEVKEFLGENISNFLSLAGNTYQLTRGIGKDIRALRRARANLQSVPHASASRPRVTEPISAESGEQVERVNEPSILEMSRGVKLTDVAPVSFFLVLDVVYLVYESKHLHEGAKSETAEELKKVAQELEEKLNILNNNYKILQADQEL

[8] = target: T4, gD-SRA-ID-GPI (construct e); test: flow cytometry, live CHO cells; 3.3A8 is the representative for the C-terminus of MAD
Protocol: as §1, §2

B1: antibody 3.3F7 (antibody, V domains shown)
VH: QVQLKQSGPSLVQPSQSLSITCTVSGFSLTTYGVHWVRQSPGKGLEWLGVIWRGGNTDYNAAFMSRLSITKDNSQSQVFFKMNSLQADDTAIYYCAKSSYGYHYTMDYWGHGTSVTVSS
VL: DIVVTQSHRFMSTSVGDRVIITCKASQNVGTAVAWYQQKPGQSPKLLIYWASTRHTGVPDRFTGSGSGTDFTLTISNVQSEDLADYFCQRYNNFPFTFGSGTKLEIKR
notes: Mouse mAb, cloned as murine IgG2a LALAPG
- binding result [1]: binds
- binding result [2]: no binding (tested: 5 µg/ml)
- binding result [3]: no binding (tested: 5 µg/ml)
- binding result [4]: no binding (tested: 5 µg/ml)

B2: antibody 3.7F5 (antibody, V domains shown)
VH: EIHLQQSGPEVVQPGASLKVSCKASDYSFTDYNVFWVKQSHGKSLEWIAYIDPYNGATSYNQKFKDKATLTVDKSSSTAFMYLNSLTSEDSAVYYCARGTVRAFFDSWGQGTTLTVSS
VL: DIVMSQSPSSLVVSVGEKVSLSCKSSQSLLYRNDQINYLAWYQQKPGQSPKLLIFWASTRESGVPVRFTGSGSGTDFTLNINTVKAEDLAVYYCQQYYSYPPTFGTGTKLEIKR
notes: Mouse mAb, cloned as murine IgG2a LALAPG; also called conformational antibody 3.7F5
- binding result [5]: no binding

B3: antibody 3.3A8 (antibody, V domains shown)
VH: QVQFQQSGAELVRPGASVKVTCKALGYTFSNYEIHWVRQPPVHGLEWIGAIHPGNGVTAYNQMFKGRATLAADKSSSTAYMELSSLTSEDSAVYYCTENFDYWGQGTALTVSS
VL: DVVVTQTPLSLPVSFGDQVSISCRSSQSLTNSYGITYLSWFLLKPGQSPQLLIYEISNRFSGVPDRFSGSGSGTDFTLKISTIKPEDLGVYFCLQGTHQPFTFGAGTKLEIKR
notes: Mouse mAb, cloned as murine IgG2a LALAPG; also called MAD antibody 3.3A8
- IC50 of blocking of serum APOL1-mediated trypanolysis (Alamar Blue) [6]: 0.4 nM
- binding result (APOL6-myc-FLAG): no binding (tested: 1 µg/ml)
- binding result [7]: binds
- binding result [8]: no binding (tested: 5 µg/ml)

From patent US20230071609A1 (Genentech, published 2023)
